{"source": "patent US20140335120A1", "key": {"[1]": {"target": "PSA65-74 peptide presented by H-2Db (PSA65-74 H-2Db tetramer; EL4 cells pulsed with H-2Db peptide) (human) (UniProt P07288)", "assay": "PSA tetramer staining of splenocytes on day 6 after the boost, flow cytometry"}, "[2]": {"target": "PSA65-74 peptide presented by H-2Db (PSA65-74 H-2Db tetramer; EL4 cells pulsed with H-2Db peptide) (human) (UniProt P07288)"}}, "data": [{"substance": "splenocytes (PSA-specific CD8+ T cells / CTLs) of C57BL/6 mice immunized with LmddA-LLO-PSA", "values": [{"measurement": "percent PSA tetramer+CD8+CD62Llow cells", "setting": "[1]", "result": 23, "unit": "%"}]}, {"substance": "splenocytes (PSA-specific CD8+ T cells / CTLs) of C57BL/6 mice immunized with LmddA-LLO-PSA (cells without a defined receptor)", "values": [{"measurement": "percentage of CD8+CD62Llow IFN-γ secreting cells (intracellular cytokine staining after 5 h stimulation with PSA peptide)", "setting": "[2]", "result": 200, "unit": "fold"}]}]}
